Laboratory results as given in patent US9066986B2, “Anti-CEACAM6 antibodies and uses thereof” (National Research Council of Canada, priority 2010, dated 2015).

Key:
BxPC3 cells [1] = test: In vitro MTT cell proliferation assay; assay type: cell-based, human; conditions: for inhibition of BxPC3 cell proliferation: vs starvation medium control
Procedure: (§1) Cells were left to grow for 72 h in the presence of the sdAb, then assayed for viability. Briefly, 20 μl of MTT reagent (2 mg/ml in PBS) was added to each well. After four hours, the supernatant was removed, adherent cells were lysed, and the crystals were solubilized with 100 μl dimethyl sulfoxide (DMSO, Sigma) per well. The absorbance of the formazan product was measured with a plate reader at a wavelength of 570 nm. After subtracting background absorbance, results were expressed as absorbance.
(§2) The medium aliquots were taken from BxPC3 cultures at the time the proliferation assays (Example 9) were performed. For evaluation of dose-dependence effect, antibodies and gemcitabine were used at concentrations of 0.4-25 μM and 0.4-50 nM, respectively. The media were applied to a 10% sodium dodecyl sulfate-polyacrylamide gel electrophoresis gel (SDS-PAGE) that was supplemented with 1.5 mg/ml gelatin. The gel was run at 150 V until the bromophenol blue dye reached the bottom of the gel. SDS was removed from the gel by washing the gel four times with 2.5% Triton X-100 for 30 min at room temperature with gentle shaking using an orbital shaker (28). The gel was then incubated overnight at 37° C. in development buffer comprising 50 mM Tris-HCl, 0.2 M NaCl, 5 mM CaCl2, 5 mM ZnCl2, 0.02% Brij-35, and 0.05% NaN3 at pH 7.4. Gelatinase-digested gelatine-supplemented gels were stained with Coomassie blue. Clean bands produced by MMP-2 and MMP-9 activity were visible against the blue background after de-staining. The relative activities of the gelatinases were determined by using a densitometer (AlphaView, Fluor Chem SP, Alpha Innotech Corporation, San Leandro, Calif., USA).

MMP-2 = test: Gelatin zymography of conditioned media from treated BxPC3 cells; assay type: cell-based, human
Procedure: (§3) Gelatin zymography is used to detect the activity of gelatinases, namely, matrix metalloproteinases MMP-2 and MMP-9 (28).
as §2

MMP-9 = test: as above; assay type: cell-based, human; conditions: for effect on MMP-9 activity: media from treated BxPC3 cells
Procedure: as §3, §2

BxPC3 cells [2] = test: Matrigel invasion assay; assay type: cell-based, human; conditions: for invasiveness of treated cells decreased to: 40 μM, 20 hrs, normalized to non-treated control
Procedure: Matrigel invasion assay is designed to evaluate the capability of cells to invade into matrigel, an indication of the capacity to metastasize.
The assay was carried out by using bio-coated Matrigel invasion chambers (BD Biosciences, Bedford, Mass.). […] Only cells that could digest the matrix could migrate through the pores. […] The cells were re-suspended in RPMI medium and seeded on the tops of insert wells at 1×10^5 cells/well density and cultured at 37° C. in a humidified CO2 chamber. After 20 hrs, the non-invasive cells were scrubbed from the top of the insert well using a cotton-swap. The invasive cells on the bottom surface were stained with Calcein AM (Invitrogen) and were photographed with an Olympus BX51 microscope. All experiments were performed in triplicate.

HUVECs = test: In vitro capillary formation assay with conditioned media of treated BxPC3 cells; assay type: cell-based, human; conditions: for inhibition of tubule formation (endothelial cell angiogenesis): HUVEC in conditioned media from BxPC3 cells treated 24 hrs, 16 h culture
From the text: Angiogenesis is another critical step in the progression of pancreatic cancer. Relatively complex and dense micro-vessels are localized in pancreatic cancer tissue. Highly vascular tumors are associated with an increased risk of hepatic metastasis and a poor survival rate (Semenza, 2003). Anti-angiogenesis is a valid strategy when employing pancreatic cancer target therapy. Thus, the in vitro capillary formation assay was used to test the ability of conditioned media of sdAb-treated BxPC3 cells to inhibit HUVECs angiogenesis.
The matrix was then polymerized at 37° C. for 30 min. […] HUVEC cells were then seeded onto the polymerized matrix at 5×10^4 cells per well. The cells were cultured at 37° C. for 16 h then stained with Calcein AM (Invitrogen) for 30 min. Photographs were taken at 100× magnification employing fluorescence microscopy (Olympus BX51). Three fields that were randomly chosen were captured and the lengths of the capillaries in each field were measured.

LS174 cells = test: In vitro MTT cell proliferation assay; assay type: cell-based, human; conditions: 125 μg/ml antibody
Procedure: as §1

A549 cells [3] = test: In vitro MTT cell proliferation assay; assay type: cell-based, human; conditions: 125 μg/ml antibody
Procedure: as §1

CEACAM6 N-domain [4] = biological target: T1, CEACAM6 N-domain (Homo sapiens, UniProt P40199); test: Affinity measurement by surface plasmon resonance (Biacore 3000); set-up: made in house; host or cells: E. coli; conditions: SPR, CEACAM6 immobilized, 1:1 Langmuir binding model
T1 sequence (P40199 35-142 limits assumed): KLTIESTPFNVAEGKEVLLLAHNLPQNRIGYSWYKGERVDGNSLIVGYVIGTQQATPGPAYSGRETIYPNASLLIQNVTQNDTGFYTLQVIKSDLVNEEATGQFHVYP
Procedure: 209 RUs of CEACAM6 and 1746 RUs of Ovalbumin (as reference protein) were immobilized on research grade sensor chip CM5 (GE HealthCare). Immobilizations were performed with an amine-coupling kit (GE Healthcare) and carried out at 50 μg/ml CEACAM6 in 10 mM Acetate, pH 4 (GE Healthcare) and 50 μg/ml of Ovalbumin in 10 mM Acetate, pH 4.5. 120 μL of the sdAb at concentration of 1 nM to 60 nM were injected over the surfaces at a flow rate of 40 μl/min. Analyses were carried out at room temperature in HBS-EP, 10 mM HEPES pH 7.4, 150 mM NaCl, 3 mM EDTA and 0.005% surfactant P20 (GE Healthcare). Regeneration was performed with running buffer (HBS-EP). Data were analyzed with BIAevaluation software 4.1.
One hundred twenty microliters of CEACAM6 recombinant protein at concentration of 0.1 nM to 200 nM was injected over the surfaces at a flow rate of 40 μl min-1. Analyses were carried out at room temperature in HBS-EP comprising 10 mM HEPES pH 7.4, 150 mM NaCl, 3 mM EDTA and 0.005% surfactant P20 (GE Healthcare). Regeneration was performed with HBS-EP used as running buffer. The data were analyzed by using BIAevaluation software 4.1.

CEACAM6 N-domain [5] = biological target: T1, CEACAM6 N-domain
Procedure: Maxisorb 96-well microtiter plates (Nunc) were coated with 2 μg/ml recombinant CEACAM6 protein (N-domain) overnight at 4° C. in phosphate-buffered saline (PBS). 2% fat-free dry milk solution in PBS was used for 2 h at room temperature to block the residual protein-binding sites in the wells. Serial diluted serum or soluble recombinant sdAbs were added to the wells, which were incubated at 37° C. for 24 hr. Detection of llama IgGs and sdAb was performed with goat anti-llama IgG (Bethyl Lab, Montgomery, Tex.), horseradish peroxidase anti-goat conjugate (Cedarlane, Burlington, ON) and the corresponding substrate KPL for peroxidase. The reaction was stopped by adding 1 M H3PO4 and the absorption at 405 nm was measured.
The sdAb was incubated in mouse serum and the residual binding capacity was measured by ELISA then compared with the same antibody that was not incubated in serum.

A549 cells [6] = test: Flow cytometry with FITC-labelled sdAb; assay type: cell-based, human; conditions: FITC-labelled 2A3, 5 μg/ml, fixed A549 cells, FACS
Procedure: (§4) For flow cytometry, purified sdAbs were labelled with FITC as instructed by the manufacturer (Invitrogen). Different cell lines were grown as a monolayer until they were approximately 80% confluent. After fixing by 10% formaldehyde in PBS for 10 minutes, cells were washed with PBS then incubated at room temperature with different FITC-labelled sdAbs. After one hour of incubation, cells were washed twice with PBS to remove unbound sdAbs and the cells were analyzed by flow cytometry using a FACS Canto flow cytometer (BD Bio-sciences).

LS174T cells = test: Flow cytometry with FITC-labelled sdAb; assay type: cell-based, human; conditions: FITC-labelled 2A3, 5 μg/ml, fixed LS174 cells, FACS
Procedure: as §4

BxPC3 cells [7] = test: Flow cytometry with FITC-labelled sdAb; assay type: cell-based, human; conditions: FITC-labelled 2A3, 5 μg/ml, fixed BxPC3 cells, FACS
Procedure: as §4

BxPC3 cells [8] = test: Cell uptake and efflux of 64Cu-labelled tracer; assay type: cell-based, human
Procedure: (§5) Cell uptake, internalization, and efflux of ^64Cu-DOTA-2A3-Fc were performed with BxPC3 and UM-SCC-22B tumor cells (negative control). For cell uptake, the cells were seeded into 24-well plates at a density of 1×10^5 cells per well and incubated with 18.5 kBq (0.5 μCi/5 ng)/well of ^64Cu-labelled tracer at 37° C. for 15, 30, 60, and 120 min. The cells were then washed three times with chilled PBS and lysed with 500 μL 0.1 M NaOH. For efflux studies, about 18.5 kBq (0.5 μCi)/well of ^64Cu-DOTA-2A3-mFc were first incubated with BxPC3 cells in 24-well plates for 2 h at 37° C. The cells were washed three times with chilled PBS and allowed to stand with fresh buffer. At various time points, the medium was removed and the cells washed three times with chilled PBS. The cells were then lysed with 500 μL 0.1 M NaOH. The cell lysate was collected and the remaining radioactivity was measured in a γ counter (Packard, Meriden, Conn.). The cell uptake, and efflux were expressed as the percentage of the added dose (% AD) after decay correction. All experiments were performed with triplicate wells.

UM-SCC-22B cells = test: Cell uptake of 64Cu-labelled tracer; assay type: cell-based, human; conditions: 22B cells compared with BxPC3 cells
Procedure: as §5

BxPC3 tumor [9] = test: Small animal PET imaging and ROI analysis
Procedure: Subcutaneous BxPC3 tumor model was established in 5 to 6-week-old female athymic nude mice obtained from Harlan (Indianapolis, Ind.); 5×10^6 cells suspended in 50 μl of phosphate buffered saline (PBS) were injected and the mice underwent small animal PET studies when the tumor volume reached 100-200 mm^3 (3-4 weeks after inoculation). PET scans and image analysis were performed using an Inveon microPET scanner (Siemens Medical Solutions). About 3.7 MBq (100 μCi/5 μg) of ^64Cu-DOTA-Abs were administered via tail vein injection under isoflurane anesthesia. Five-minute static PET images were acquired at different time points post-injection (p.i.; n=4/group). The images were reconstructed using a two-dimensional ordered-subset expectation maximization (2D OSEM) algorithm, and no correction was applied for attenuation or scattering. For each scan, regions of interest (ROIs) were drawn over the tumor and major organs using vendor software (ASI Pro 5.2.4.0) on decay-corrected whole-body coronal images. The radioactivity concentrations (accumulation) within the tumors, muscle, liver, and kidneys were obtained from mean pixel values within the multiple ROI volume and then converted to MBq per milliliter per minute using the calibration factor determined for the Inveon PET system. […]

BxPC3 tumor [10] = test: Ex vivo biodistribution (γ-counter); conditions: 64Cu-DOTA-labelled, 24 hr p.i., n=4
Procedure: Blood, tumor, major organs, and tissues were collected and wet-weighed. The radioactivity in the wet whole tissue was measured with a γ-counter (Packard). The results were expressed as percentage of injected dose per gram of tissue (% ID/g) for a group of 4 animals. For each mouse, the radioactivity of the tissue samples was calibrated against a known aliquot of the injected radiotracer and normalized to a body mass of 20 g. Values were expressed as mean±SD (n=4/group).

Nc1ccn([C@@H]2O[C@H](CO)[C@@H](O)C2(F)F)c(=O)n1 [gemcitabine, reference compound]
IC50 (BxPC3 cells [1]; Homo sapiens, BXPC-3, 72 h, MTT, n=5): 12 nM
increase of MMP-2 activity (MMP-2; at high dosages): ~10%
effect on MMP-2 activity (MMP-2; media from treated BxPC3 cells): does not affect MMP-2 and MMP-9 activity
increase of MMP-9 activity (MMP-9; at high dosages): ~10%
effect on MMP-9 activity (MMP-9): slightly increased MMP-9 activity
effect on invasion (BxPC3 cells [2]): did not affect angiogenesis or invasion
effect on angiogenesis (HUVECs; culture medium from treated BxPC3 cells): inhibitory effects on angiogenesis were not seen

B1: 2A3: anti-CEACAM6 llama single domain antibody (sdAb), SEQ ID NO:4 (protein)
VHH: QVKLEESGGGLVQAGGSLRLSCRTSGRTNSVYTMGWFRQAPGKEREFVAQIMWGAGTNTHYADSVKGRFTISRDSAESTVYLQMNSLKPEDTAVYYCAANRGIPIAGRQYDYWGQGTQVTVSS
modifications: Anti-CEACAM6 sdAb
effect on LS174 growth (LS174 cells): little effect on their growth
effect on A549 growth (A549 cells [3]): little effect on their growth
inhibition of BxPC3 cell proliferation (BxPC3 cells [1]; 50 μg/ml): approximately 27%
effect on BxPC3 proliferation (BxPC3 cells [1]; 125 μg/ml antibody, vs irrelevant sdAb BSA12, p<0.0001): inhibits BxPC3 proliferation in vitro
effect on MMP-2 activity (MMP-2; 5 μM dosage): did not influence MMP-2 activity significantly
effect on MMP-2 activity (MMP-2; media from treated BxPC3 cells): not MMP-2 activity
MMP-9 activity reduced to (MMP-9; 5 μM dosage): 25%
culture medium MMP-9 activity down-regulated by (MMP-9; 2A3-treated BxPC3 compared to non-treated cells): 33%
effect on MMP-9 activity (MMP-9): reduce the activity of MMP-9
BxPC3 invasiveness reduced by (BxPC3 cells [2]): ~73%
invasiveness of treated cells decreased to (BxPC3 cells [2]): 27.4±8.4%
dissociation rate (kd) (CEACAM6 N-domain [4]): 0.0053 s⁻¹
association rate (ka) (CEACAM6 N-domain [4]; sdAb 1 nM to 60 nM, room temperature): 1.1e+06 M⁻¹ s⁻¹
inhibition of tubule formation (endothelial cell angiogenesis) (HUVECs): 21%
residual binding capacity after incubation in mouse serum (CEACAM6 N-domain [5]): retained its full binding capacity
cells stained positive (A549 cells [6]): ~20%
cells stained positive (LS174T cells): about 16%
cells stained positive (BxPC3 cells [7]): approximately 90%

B2: ^64Cu-DOTA-2A3-Fc: 2A3-Fc conjugated with DOTA and labelled with 64Cu, PET tracer (conjugate)
chain: QVKLEESGGGLVQAGGSLRLSCRTSGRTNSVYTMGWFRQAPGKEREFVAQIMWGAGTNTHYADSVKGRFTISRDSAESTVYLQMNSLKPEDTAVYYCAANRGIPIAGRQYDYWGQGTQVTVSS
modifications: left off: a dimerising Fc or GST
total cell uptake (BxPC3 cells [8]; 2 hr incubation, 37° C.): 10.13±0.05 % of total added dose
radioactivity retained on the cells (efflux) (BxPC3 cells [8]; after 2 h incubation in medium devoid of radioactivity): more than 65%
cell uptake (UM-SCC-22B cells): much lower uptake

B3: 2A3-Fc: 2A3 sdAb fused to the mouse Fc2b fragment; heavy chain antibody (protein)
chain: QVKLEESGGGLVQAGGSLRLSCRTSGRTNSVYTMGWFRQAPGKEREFVAQIMWGAGTNTHYADSVKGRFTISRDSAESTVYLQMNSLKPEDTAVYYCAANRGIPIAGRQYDYWGQGTQVTVSS
modifications: left off: a dimerising Fc or GST
notes: heavy chain antibody
tumor uptake (BxPC3 tumor [9]; 64Cu-DOTA-labelled, PET ROI, 24 hr p.i.): 98.2±6.12 % ID/g
share of the total injected dose distributed to tumor region (BxPC3 tumor [9]; 24 hr after injection, average tumor size 184 mm^3): Roughly 18%
BxPC3 tumor uptake, ex vivo (BxPC3 tumor [10]): 95.4±29.3 % ID/g
inhibition of BxPC3 cell proliferation (BxPC3 cells [1]; 360 μg/ml): 55%
effect on MMP-2 activity (MMP-2; media from treated BxPC3 cells): not MMP-2 activity
effect on MMP-9 activity (MMP-9): reduce the activity of MMP-9
invasiveness of treated cells decreased to (BxPC3 cells [2]): 27.4±4.8%
inhibition of tubule formation (endothelial cell angiogenesis) (HUVECs): 49%
